In US20250270289A1, “SEQUENCE-DEFINED POLYMERS WITH ONE OR MORE AZIDES, METHODS OF MAKING, AND METHODS OF USE THEREOF” (Yale University, priority 2021, published 2025):

What was measured:
[1] = Half-life from blood samples by GFP ELISA after injection; format: in vivo, C57BL/6 mice; details: intravenous, 50 μg, no ISAz treatment
Protocol: The half-lives of ELP-GFP constructs were calculated from concentrations measured from blood samples collected over the course of a week. The experiments were initiated by injecting 120 μL of 10 μM ELP-GFP intravenously or subcutaneously. At indicated times, 2 μL blood was collected from a tail puncture, and diluted 1:25 in heparin tubes. The blood sample was vortexed briefly and cells were pelleted by centrifugation (2 min at 14,000 g). The soluble fraction was collected and frozen at −20° C. until analysis. ELP-GFP concentrations of the samples were determined using a GFP ELISA Kit (Abcam, cat. #ab171581). The samples were diluted in PBS as needed, to ensure that the concentration fell within the quantifiable range of the standard curve.
Next, experiments were designed to determine if the tighter binding affinity translates into prolonged half-life in C57BL/6J mice. A total of 50 μg of each protein variant (10 μM in PBS) was injected intravenously, and blood was collected after 1, 4, 8, 16 and 24 hours, followed by daily collections through seven days. The blood levels of ELP(nFA)-GFP constructs were measured using a GFP-specific ELISA, and their pharmacokinetic profiles were calculated (see FIGS. 7F and 7G).

[2] = molecular target: mouse serum albumin (MSA) (Mus musculus, UniProt P07724); assay: Surface plasmon resonance, steady-state affinity; details: not ISAz treated; mean (s.d.) of 4-8 experiments; n.d. = no binding detected
Sequence of mouse serum albumin (MSA) (P07724 25-608): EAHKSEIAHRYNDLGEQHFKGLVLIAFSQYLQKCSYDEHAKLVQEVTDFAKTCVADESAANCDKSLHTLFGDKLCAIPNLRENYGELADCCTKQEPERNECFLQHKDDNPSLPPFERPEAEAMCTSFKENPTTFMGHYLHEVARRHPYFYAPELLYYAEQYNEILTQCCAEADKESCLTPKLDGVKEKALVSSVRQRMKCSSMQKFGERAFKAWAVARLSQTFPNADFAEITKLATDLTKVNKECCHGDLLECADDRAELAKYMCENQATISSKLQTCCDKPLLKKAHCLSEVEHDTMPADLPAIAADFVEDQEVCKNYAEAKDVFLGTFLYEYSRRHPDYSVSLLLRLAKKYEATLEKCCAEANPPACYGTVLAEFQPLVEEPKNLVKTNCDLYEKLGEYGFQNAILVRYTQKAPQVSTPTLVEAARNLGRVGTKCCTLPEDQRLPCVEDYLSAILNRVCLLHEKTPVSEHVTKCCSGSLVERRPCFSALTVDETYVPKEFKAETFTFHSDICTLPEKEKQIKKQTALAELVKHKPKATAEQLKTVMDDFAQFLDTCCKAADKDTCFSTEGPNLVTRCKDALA

B1: ELP(0FA)GFP: ELP-GFP fusion, 10 pentadecapeptide repeats with tyrosine at the guest residue, no conjugated fatty acids (SEQ ID NO:33) (protein)
chain: MSKGPGVPGGGVPGAGVPGYGVPGGGVPGAGVPGYGVPGGGVPGAGVPGYGVPGGGVPGAGVPGYGVPGGGVPGAGVPGYGVPGGGVPGAGVPGYGVPGGGVPGAGVPGYGVPGGGVPGAGVPGYGVPGGGVPGAGVPGYGVPGGGVPGAGVPGYGPGGGG
half-life [1]: 1.7 h | KD MSA [2]: no detectable binding
